According to PMC8294587, “Intrinsic differences in the mechanisms of Tie2 binding to angiopoietins exploited by directed evolution to create an Ang2-selective ligand trap” (The Journal of Biological Chemistry, 2021):

T1: Angiopoietin-1 (UniProt Q15389 16-498)
T1 construct: recombinant Ang1; the residue numbers printed for Ang1 (Gln415, Asp450, Leu471, Tyr478) come from the cited structure 4K0V; also called Ang1; source: recombinant
T1 sequence (looked up): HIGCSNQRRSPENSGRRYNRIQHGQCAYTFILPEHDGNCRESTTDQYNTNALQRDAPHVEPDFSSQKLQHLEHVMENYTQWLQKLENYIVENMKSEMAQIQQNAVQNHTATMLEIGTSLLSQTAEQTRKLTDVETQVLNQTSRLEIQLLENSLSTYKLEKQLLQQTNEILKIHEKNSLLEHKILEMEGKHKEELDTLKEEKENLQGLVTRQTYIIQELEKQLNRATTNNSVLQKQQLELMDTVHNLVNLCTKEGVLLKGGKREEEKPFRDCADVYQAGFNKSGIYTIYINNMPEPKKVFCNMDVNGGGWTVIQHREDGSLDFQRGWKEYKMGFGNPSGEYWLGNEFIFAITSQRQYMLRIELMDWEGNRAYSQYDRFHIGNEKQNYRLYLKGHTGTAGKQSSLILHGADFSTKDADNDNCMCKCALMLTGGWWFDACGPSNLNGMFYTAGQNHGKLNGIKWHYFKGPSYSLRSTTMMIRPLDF

T2: Angiopoietin-2 (UniProt O15123 19-496)
T2 construct: recombinant Ang2; the residue numbers printed for Ang2 (Asp448, Phe469, Ser480) come from the cited structure 2GY7; also called Ang2; source: recombinant
T2 sequence (looked up): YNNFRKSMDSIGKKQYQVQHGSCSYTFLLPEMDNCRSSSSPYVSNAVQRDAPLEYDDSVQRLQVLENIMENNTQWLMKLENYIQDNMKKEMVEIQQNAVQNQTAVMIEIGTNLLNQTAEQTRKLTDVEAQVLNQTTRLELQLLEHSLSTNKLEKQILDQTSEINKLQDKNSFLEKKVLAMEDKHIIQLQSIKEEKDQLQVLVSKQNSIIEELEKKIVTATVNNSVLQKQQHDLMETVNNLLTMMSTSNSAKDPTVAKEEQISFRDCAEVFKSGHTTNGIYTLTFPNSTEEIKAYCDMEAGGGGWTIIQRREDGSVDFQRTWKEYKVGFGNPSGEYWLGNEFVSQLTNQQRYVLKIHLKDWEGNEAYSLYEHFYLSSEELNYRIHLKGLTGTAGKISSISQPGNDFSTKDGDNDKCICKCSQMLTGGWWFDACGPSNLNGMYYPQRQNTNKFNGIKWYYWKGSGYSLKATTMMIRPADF


How the values were obtained:
Assay in all cases: ELISA; recombinant Ang1 or Ang2 immobilised on Maxisorp plates, blocked with TBS, 0.1% Triton-X100, 5% milk powder; Tie2 ectodomain proteins bound for 1 h; detected with anti-Tie2 ectodomain antibodies; EC50 = concentration of ectodomain for 50% of maximal binding
Details in all cases: both partners purified
[1] = target: T1, Angiopoietin-1
[2] = target: T2, Angiopoietin-2
[3] = target: T2, Angiopoietin-2; remark: listed apart in the source

| EC50 [1] [nM] | EC50 [2] [nM] | binding result [3] | Binder |
| --- | --- | --- | --- |
| 0.66 | 1.37 |  | wild-type Tie2 ectodomain-Fc (Fc fusion, human, UniProt Q02763 23-442, looked up, signal peptide in the construct; Tie2 ectodomain, human, residues 1-442; Order on the chain: Tie2 1-442, GS4 linker, human Fc fragment, His6; also called Wt; Wt-Tie2; source: Hek293, transfected, purified from culture medium (nickel chromatography); not shown: Fc (fragment of human Fc immunoglobulin domain, after a GS4 linker), C-terminal, kept) AMDLILINSLPLVSDAETSLTCIASGWRPHEPITIGRDFEALMNQHQDPLEVTQDVTREWAKKVVWKREKASKINGAYFCEGRVRGEAIRIRTMKMRQQASFLPATLTMTVDKGDNVNISFKKVLIKEEDAVIYKNGSFIHSVPRHEVPDILEVHLPHAQPQDAGVYSARYIGGNLFTSAFTRLIVRRCEAQKWGPECNHLCTACMNNGVCHEDTGECICPPGFMGRTCEKACELHTFGRTCKERCSGQEGCKSYVFCLPDPYGCSCATGWKGLQCNEACHPGFYGPDCKLRCSCNNGEMCDRFQGCLCSPGWQGLQCEREGIQRMTPKIVDLPDHIEVNSGKFNPICKASGWPLPTNEEMTLVKPDGTVLHPKDFNHTDHFSVAIFTIHRILPPDSGVWVCSVNTVAGMVEKPFNISVK |
|  |  | binds | Tie2 ectodomain-Fc Arg167Ala/His168Ala/Glu169Ala (Fc fusion, human, UniProt Q02763 23-442, looked up, signal peptide in the construct; Tie2 ectodomain, human, residues 1-442; also called triple alanine substitution of Arg167, His168 and Glu169; source: Hek293, transfected, purified from culture medium (nickel chromatography); not shown: Fc (fragment of human Fc immunoglobulin domain, after a GS4 linker), C-terminal, kept) AMDLILINSLPLVSDAETSLTCIASGWRPHEPITIGRDFEALMNQHQDPLEVTQDVTREWAKKVVWKREKASKINGAYFCEGRVRGEAIRIRTMKMRQQASFLPATLTMTVDKGDNVNISFKKVLIKEEDAVIYKNGSFIHSVPAAAVPDILEVHLPHAQPQDAGVYSARYIGGNLFTSAFTRLIVRRCEAQKWGPECNHLCTACMNNGVCHEDTGECICPPGFMGRTCEKACELHTFGRTCKERCSGQEGCKSYVFCLPDPYGCSCATGWKGLQCNEACHPGFYGPDCKLRCSCNNGEMCDRFQGCLCSPGWQGLQCEREGIQRMTPKIVDLPDHIEVNSGKFNPICKASGWPLPTNEEMTLVKPDGTVLHPKDFNHTDHFSVAIFTIHRILPPDSGVWVCSVNTVAGMVEKPFNISVK |
| 9 | 3.94 |  | Tie2 ectodomain-Fc E169A (Fc fusion, human, UniProt Q02763 23-442, looked up, signal peptide in the construct; Tie2 ectodomain, human, residues 1-442; also called Glu169Ala; source: Hek293, transfected, purified from culture medium (nickel chromatography); not shown: Fc (fragment of human Fc immunoglobulin domain, after a GS4 linker), C-terminal, kept) AMDLILINSLPLVSDAETSLTCIASGWRPHEPITIGRDFEALMNQHQDPLEVTQDVTREWAKKVVWKREKASKINGAYFCEGRVRGEAIRIRTMKMRQQASFLPATLTMTVDKGDNVNISFKKVLIKEEDAVIYKNGSFIHSVPRHAVPDILEVHLPHAQPQDAGVYSARYIGGNLFTSAFTRLIVRRCEAQKWGPECNHLCTACMNNGVCHEDTGECICPPGFMGRTCEKACELHTFGRTCKERCSGQEGCKSYVFCLPDPYGCSCATGWKGLQCNEACHPGFYGPDCKLRCSCNNGEMCDRFQGCLCSPGWQGLQCEREGIQRMTPKIVDLPDHIEVNSGKFNPICKASGWPLPTNEEMTLVKPDGTVLHPKDFNHTDHFSVAIFTIHRILPPDSGVWVCSVNTVAGMVEKPFNISVK |
| 1.38 | 5.88 |  | Tie2 ectodomain-Fc H163A (Fc fusion, human, UniProt Q02763 23-442, looked up, signal peptide in the construct; Tie2 ectodomain, human, residues 1-442; source: Hek293, transfected, purified from culture medium (nickel chromatography); not shown: Fc (fragment of human Fc immunoglobulin domain, after a GS4 linker), C-terminal, kept) AMDLILINSLPLVSDAETSLTCIASGWRPHEPITIGRDFEALMNQHQDPLEVTQDVTREWAKKVVWKREKASKINGAYFCEGRVRGEAIRIRTMKMRQQASFLPATLTMTVDKGDNVNISFKKVLIKEEDAVIYKNGSFIASVPRHEVPDILEVHLPHAQPQDAGVYSARYIGGNLFTSAFTRLIVRRCEAQKWGPECNHLCTACMNNGVCHEDTGECICPPGFMGRTCEKACELHTFGRTCKERCSGQEGCKSYVFCLPDPYGCSCATGWKGLQCNEACHPGFYGPDCKLRCSCNNGEMCDRFQGCLCSPGWQGLQCEREGIQRMTPKIVDLPDHIEVNSGKFNPICKASGWPLPTNEEMTLVKPDGTVLHPKDFNHTDHFSVAIFTIHRILPPDSGVWVCSVNTVAGMVEKPFNISVK |
| 26.4 | 0.5 |  | Tie2 ectodomain-Fc H168A (Fc fusion, human, UniProt Q02763 23-442, looked up, signal peptide in the construct; Tie2 ectodomain, human, residues 1-442; also called Tie2(H168A); His168Ala; source: Hek293, transfected, purified from culture medium (nickel chromatography); not shown: Fc (fragment of human Fc immunoglobulin domain, after a GS4 linker), C-terminal, kept) AMDLILINSLPLVSDAETSLTCIASGWRPHEPITIGRDFEALMNQHQDPLEVTQDVTREWAKKVVWKREKASKINGAYFCEGRVRGEAIRIRTMKMRQQASFLPATLTMTVDKGDNVNISFKKVLIKEEDAVIYKNGSFIHSVPRAEVPDILEVHLPHAQPQDAGVYSARYIGGNLFTSAFTRLIVRRCEAQKWGPECNHLCTACMNNGVCHEDTGECICPPGFMGRTCEKACELHTFGRTCKERCSGQEGCKSYVFCLPDPYGCSCATGWKGLQCNEACHPGFYGPDCKLRCSCNNGEMCDRFQGCLCSPGWQGLQCEREGIQRMTPKIVDLPDHIEVNSGKFNPICKASGWPLPTNEEMTLVKPDGTVLHPKDFNHTDHFSVAIFTIHRILPPDSGVWVCSVNTVAGMVEKPFNISVK |
